According to US20200115430A1 (I2O THERAPEUTICS, published 2020):
Starred links: 1 amine or outer side, 2 acyl side, 3 side chain; linkers in the order of their positions; H or OH if unused. Positions of bridges follow the written chain, without caps; N, C: chain ends. Groups on a side chain read outwards from the residue. No end group written: not given here. *: point of attachment. C17 diacid = O=C(O)CCCCCCCCCCCCCCCC(=O)*; C16 diacid = O=C(O)CCCCCCCCCCCCCCC(=O)*; γGlu = O=C(O)[C@H](CCC(=O)[*:2])N[*:1]

T1: human calcitonin receptor (human, UniProt P30988 25-474)
T1 sequence (looked up): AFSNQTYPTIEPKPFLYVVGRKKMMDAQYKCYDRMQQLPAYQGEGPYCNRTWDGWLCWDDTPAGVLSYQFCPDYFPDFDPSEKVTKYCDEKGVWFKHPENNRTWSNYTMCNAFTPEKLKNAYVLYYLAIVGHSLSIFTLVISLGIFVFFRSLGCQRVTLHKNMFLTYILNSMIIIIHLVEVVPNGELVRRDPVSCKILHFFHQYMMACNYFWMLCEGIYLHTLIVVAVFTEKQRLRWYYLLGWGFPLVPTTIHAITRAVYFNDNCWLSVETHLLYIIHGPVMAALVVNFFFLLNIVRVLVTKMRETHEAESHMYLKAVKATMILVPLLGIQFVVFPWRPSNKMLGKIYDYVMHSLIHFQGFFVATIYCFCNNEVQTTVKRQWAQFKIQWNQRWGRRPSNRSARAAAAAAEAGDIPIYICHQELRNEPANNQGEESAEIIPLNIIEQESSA

T2: human amylin 3 receptor (human, UniProt P30988 25-474; O60896 24-148)
T2 sequence (looked up) 1: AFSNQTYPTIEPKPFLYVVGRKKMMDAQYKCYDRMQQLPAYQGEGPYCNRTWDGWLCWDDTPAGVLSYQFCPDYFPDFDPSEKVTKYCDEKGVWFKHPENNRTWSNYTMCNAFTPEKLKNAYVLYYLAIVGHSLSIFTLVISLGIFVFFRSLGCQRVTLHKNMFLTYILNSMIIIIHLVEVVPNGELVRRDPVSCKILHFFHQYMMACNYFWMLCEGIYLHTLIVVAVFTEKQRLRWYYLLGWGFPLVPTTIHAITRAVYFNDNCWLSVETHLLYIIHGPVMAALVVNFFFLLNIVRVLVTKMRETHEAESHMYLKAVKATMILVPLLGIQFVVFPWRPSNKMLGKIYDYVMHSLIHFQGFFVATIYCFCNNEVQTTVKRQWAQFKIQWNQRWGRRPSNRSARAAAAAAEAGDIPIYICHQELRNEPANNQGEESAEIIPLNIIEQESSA
T2 sequence (looked up) 2: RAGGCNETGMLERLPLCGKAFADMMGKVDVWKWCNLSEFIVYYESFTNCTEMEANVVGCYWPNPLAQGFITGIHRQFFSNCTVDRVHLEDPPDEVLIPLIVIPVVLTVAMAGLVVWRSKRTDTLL

B1: Compound A80 (peptide)
peptide: SCNTSTCATQRLANEK([γGlu-C17 diacid])HKSSNNFGPILPPTKVGSETY-NH2
modifications: disulfide 2-7; N-terminus assumed
SMILES: CC[C@H](C)[C@H](NC(=O)[C@@H]1CCCN1C(=O)CNC(=O)[C@H](Cc1ccccc1)NC(=O)[C@H](CC(N)=O)NC(=O)[C@H](CC(N)=O)NC(=O)[C@H](CO)NC(=O)[C@H](CO)NC(=O)[C@H](CCCCN)NC(=O)[C@H](Cc1c[nH]cn1)NC(=O)[C@H](CCCCNC(=O)CC[C@H](NC(=O)CCCCCCCCCCCCCCCC(=O)O)C(=O)O)NC(=O)[C@H](CCC(=O)O)NC(=O)[C@H](CC(N)=O)NC(=O)[C@H](C)NC(=O)[C@H](CC(C)C)NC(=O)[C@H](CCCNC(=N)N)NC(=O)[C@H](CCC(N)=O)NC(=O)[C@@H](NC(=O)[C@H](C)NC(=O)[C@@H]1CSSC[C@H](NC(=O)[C@@H](N)CO)C(=O)N[C@@H](CC(N)=O)C(=O)N[C@@H]([C@@H](C)O)C(=O)N[C@@H](CO)C(=O)N[C@@H]([C@@H](C)O)C(=O)N1)[C@@H](C)O)C(=O)N[C@@H](CC(C)C)C(=O)N1CCC[C@H]1C(=O)N1CCC[C@H]1C(=O)N[C@H](C(=O)N[C@@H](CCCCN)C(=O)N[C@H](C(=O)NCC(=O)N[C@@H](CO)C(=O)N[C@@H](CCC(=O)O)C(=O)N[C@H](C(=O)N[C@@H](Cc1ccc(O)cc1)C(N)=O)[C@@H](C)O)C(C)C)[C@@H](C)O
B2: Compound A88 (peptide)
peptide: SCNTSTCATQRLANEK([γGlu-C16 diacid])HKSSNNFGPILPPTKVGSETY-NH2
modifications: disulfide 2-7; N-terminus assumed
SMILES: CC[C@H](C)[C@H](NC(=O)[C@@H]1CCCN1C(=O)CNC(=O)[C@H](Cc1ccccc1)NC(=O)[C@H](CC(N)=O)NC(=O)[C@H](CC(N)=O)NC(=O)[C@H](CO)NC(=O)[C@H](CO)NC(=O)[C@H](CCCCN)NC(=O)[C@H](Cc1c[nH]cn1)NC(=O)[C@H](CCCCNC(=O)CC[C@H](NC(=O)CCCCCCCCCCCCCCC(=O)O)C(=O)O)NC(=O)[C@H](CCC(=O)O)NC(=O)[C@H](CC(N)=O)NC(=O)[C@H](C)NC(=O)[C@H](CC(C)C)NC(=O)[C@H](CCCNC(=N)N)NC(=O)[C@H](CCC(N)=O)NC(=O)[C@@H](NC(=O)[C@H](C)NC(=O)[C@@H]1CSSC[C@H](NC(=O)[C@@H](N)CO)C(=O)N[C@@H](CC(N)=O)C(=O)N[C@@H]([C@@H](C)O)C(=O)N[C@@H](CO)C(=O)N[C@@H]([C@@H](C)O)C(=O)N1)[C@@H](C)O)C(=O)N[C@@H](CC(C)C)C(=O)N1CCC[C@H]1C(=O)N1CCC[C@H]1C(=O)N[C@H](C(=O)N[C@@H](CCCCN)C(=O)N[C@H](C(=O)NCC(=O)N[C@@H](CO)C(=O)N[C@@H](CCC(=O)O)C(=O)N[C@H](C(=O)N[C@@H](Cc1ccc(O)cc1)C(N)=O)[C@@H](C)O)C(C)C)[C@@H](C)O

Assays:
[1] = target: T1, human calcitonin receptor; experiment: cell-based or functional assay
human amylin 3 receptor = target: T2, human amylin 3 receptor; experiment: cell-based or functional assay

Binder	pEC50 (cAMP accumulation), 0% HSA [1] [pEC50]	pEC50 (cAMP accumulation), 0.1% HSA [1] [pEC50]	pEC50 (cAMP accumulation), 4% HSA [1] [pEC50]	pEC50 (cAMP accumulation), 0% HSA (human amylin 3 receptor) [pEC50]	pEC50 (cAMP accumulation), 0.1% HSA (human amylin 3 receptor) [pEC50]	pEC50 (cAMP accumulation), 4% HSA (human amylin 3 receptor) [pEC50]
B1	10.2	9.2	7.7	11.3	10.4	8.7
B2	9.8	9	7.8	10.8	10.1	8.7
